US20060099701

Experiments:
[1] = tested on: cyclin A (immunoprecipitated)
[2] = tested on: ACDK proteins (immunoprecipitated from brain tissue extracts with the anti-ACDK-specific antibody)

| Substance | pRB phosphorylation (kinase reaction, Western blot with pRB phosphospecific antibodies) [1] | pRB phosphorylation (kinase reaction, Western blot with pRB phosphospecific antibodies) [2] | observed phosphorylation efficiency of pRB, against the cyclin A-CDK2 complex [2] |
| --- | --- | --- | --- |
| CDK1 (immunoprecipitated, native) | Lane B, pRB phosphorylated by cyclin A-CDK1 (positive control) | by ACDK-CDK1 complex at serine 249 and/or threonine 252 |  |
| CDK2 (immunoprecipitated, native) | Lane B, pRB phosphorylated by cyclin A-CDK2 (positive control) | pRB was phosphorylated by ACDK-CDK2 complex at threonine 821 | ACDK-CDK2 activity was approximately 2-fold higher than that of cyclin A-CDK2 complex |
